Test results from patent US20090105152A1.
Each block holds one binder with its values, some of them ahead of it. Square brackets hold non-standard residues; d marks the D form. Phe(4-Cl) = N[C@@H](Cc1ccc(Cl)cc1)C(=O)O; Phe(3-F) = N[C@@H](Cc1cccc(F)c1)C(=O)O; Ala(Pip) = (4-piperidin-1-yl)alanine; Phe(2-F) = N[C@@H](Cc1ccccc1F)C(=O)O; Arg(Me) = CNC(=N)NCCC[C@H](N)C(=O)O; Hyp = O=C(O)[C@@H]1C[C@@H](O)CN1; His(3Me) = 3-methylhistidine; Aib = CC(C)(N)C(=O)O; azaGly = NNC(=O)O

Molecular target: human OT7T175 (metastin receptor) (human) (UniProt Q969F8)
Assay: cell-based or functional assay

Chain of human OT7T175 (metastin receptor) (human) (Q969F8 whole entry L364H): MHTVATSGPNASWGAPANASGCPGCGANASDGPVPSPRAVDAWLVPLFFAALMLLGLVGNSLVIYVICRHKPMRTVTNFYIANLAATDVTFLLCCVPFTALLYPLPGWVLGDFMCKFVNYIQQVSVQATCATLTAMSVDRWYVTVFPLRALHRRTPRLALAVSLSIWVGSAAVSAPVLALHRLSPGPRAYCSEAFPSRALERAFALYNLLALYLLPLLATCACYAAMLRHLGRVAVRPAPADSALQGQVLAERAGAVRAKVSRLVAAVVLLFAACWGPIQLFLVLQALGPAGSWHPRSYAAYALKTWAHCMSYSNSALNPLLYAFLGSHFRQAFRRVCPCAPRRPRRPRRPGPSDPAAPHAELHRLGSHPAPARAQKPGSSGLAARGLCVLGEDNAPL

Binder: Ac-[dY][His(3Me)]NTF[azaGly]L[Arg(Me)]W-NH2 [des(1)-Ac-[D-Tyr2,His(3Me)3,Thr5,AzaGly7,Arg(Me)9,Trp10]MS10]
intracellular Ca ion level-increasing activity [specific activity to Metastin (1-54)] (relative to Metastin (1-54)): 1.1

B1: des(1)-Ac-[D-Tyr2,Gly3,Thr5,Phe(2F)6,AzaGly7,Arg(Me)9,Trp10]MS10 (peptide)
peptide: Ac-[dY]GNT[Phe(2-F)][azaGly]L[Arg(Me)]W-NH2
SMILES: CNC(=N)NCCC[C@H](NC(=O)[C@H](CC(C)C)NC(=O)NNC(=O)[C@H](Cc1ccccc1F)NC(=O)[C@@H](NC(=O)[C@H](CC(N)=O)NC(=O)CNC(=O)[C@@H](Cc1ccc(O)cc1)NC(C)=O)[C@@H](C)O)C(=O)N[C@@H](Cc1c[nH]c2ccccc12)C(N)=O
intracellular Ca ion level-increasing activity [specific activity to Metastin (1-54)] (relative to Metastin (1-54)): 8.8

Binder: Ac-[dY][Ala(Pip)]NTF[azaGly]L[Arg(Me)]W-NH2 (also: position 2 DL, both configurations) [des(1)-Ac-[D-Tyr2,DL-Ala(Pip)3,Thr5,AzaGly7,Arg(Me)9,Trp10]MS10]
intracellular Ca ion level-increasing activity [specific activity to Metastin (1-54)] (relative to Metastin (1-54)): 2

B3: des(1)-Ac-[D-Tyr2,Aib3,Thr5,Phe(4Cl)6,AzaGly7,Arg(Me)9,Trp10]MS10 (peptide)
peptide: Ac-[dY][Aib]NT[Phe(4-Cl)][azaGly]L[Arg(Me)]W-NH2
SMILES: CNC(=N)NCCC[C@H](NC(=O)[C@H](CC(C)C)NC(=O)NNC(=O)[C@H](Cc1ccc(Cl)cc1)NC(=O)[C@@H](NC(=O)[C@H](CC(N)=O)NC(=O)C(C)(C)NC(=O)[C@@H](Cc1ccc(O)cc1)NC(C)=O)[C@@H](C)O)C(=O)N[C@@H](Cc1c[nH]c2ccccc12)C(N)=O
intracellular Ca ion level-increasing activity [specific activity to Metastin (1-54)] (relative to Metastin (1-54)): 2.6

B4: des(1)-Ac-[D-Tyr2,Gly3,Thr5,Phe(4Cl)6,AzaGly7,Arg(Me)9,Trp10]MS10 (peptide)
peptide: Ac-[dY]GNT[Phe(4-Cl)][azaGly]L[Arg(Me)]W-NH2
SMILES: CNC(=N)NCCC[C@H](NC(=O)[C@H](CC(C)C)NC(=O)NNC(=O)[C@H](Cc1ccc(Cl)cc1)NC(=O)[C@@H](NC(=O)[C@H](CC(N)=O)NC(=O)CNC(=O)[C@@H](Cc1ccc(O)cc1)NC(C)=O)[C@@H](C)O)C(=O)N[C@@H](Cc1c[nH]c2ccccc12)C(N)=O
intracellular Ca ion level-increasing activity [specific activity to Metastin (1-54)] (relative to Metastin (1-54)): 1.5

B5: des(1)-Ac-[D-Tyr2,Gly3,Thr5,Phe(3F)6,AzaGly7,Arg(Me)9,Trp10]MS10 (peptide)
peptide: Ac-[dY]GNT[Phe(3-F)][azaGly]L[Arg(Me)]W-NH2
SMILES: CNC(=N)NCCC[C@H](NC(=O)[C@H](CC(C)C)NC(=O)NNC(=O)[C@H](Cc1cccc(F)c1)NC(=O)[C@@H](NC(=O)[C@H](CC(N)=O)NC(=O)CNC(=O)[C@@H](Cc1ccc(O)cc1)NC(C)=O)[C@@H](C)O)C(=O)N[C@@H](Cc1c[nH]c2ccccc12)C(N)=O
intracellular Ca ion level-increasing activity [specific activity to Metastin (1-54)] (relative to Metastin (1-54)): 3.2

The next lines start with the values.

intracellular Ca ion level-increasing activity [specific activity to Metastin (1-54)] (relative to Metastin (1-54)): 0.6
B2: des(1)-Ac-[D-Tyr2,Trp3,Thr5,Phe(4Cl)6,AzaGly7,Arg(Me)9,Trp10]MS10 (peptide)
peptide: Ac-[dY]WNT[Phe(4-Cl)][azaGly]L[Arg(Me)]W-NH2
SMILES: CNC(=N)NCCC[C@H](NC(=O)[C@H](CC(C)C)NC(=O)NNC(=O)[C@H](Cc1ccc(Cl)cc1)NC(=O)[C@@H](NC(=O)[C@H](CC(N)=O)NC(=O)[C@H](Cc1c[nH]c2ccccc12)NC(=O)[C@@H](Cc1ccc(O)cc1)NC(C)=O)[C@@H](C)O)C(=O)N[C@@H](Cc1c[nH]c2ccccc12)C(N)=O

intracellular Ca ion level-increasing activity [specific activity to Metastin (1-54)] (relative to Metastin (1-54)): 2.6
B6: des(1)-Ac-[D-Tyr2,Hyp3,Thr5,Phe(3F)6,AzaGly7,Arg(Me)9,Trp10]MS10 (peptide)
peptide: Ac-[dY][Hyp]NT[Phe(3-F)][azaGly]L[Arg(Me)]W-NH2
SMILES: CNC(=N)NCCC[C@H](NC(=O)[C@H](CC(C)C)NC(=O)NNC(=O)[C@H](Cc1cccc(F)c1)NC(=O)[C@@H](NC(=O)[C@H](CC(N)=O)NC(=O)[C@@H]1C[C@@H](O)CN1C(=O)[C@@H](Cc1ccc(O)cc1)NC(C)=O)[C@@H](C)O)C(=O)N[C@@H](Cc1c[nH]c2ccccc12)C(N)=O

intracellular Ca ion level-increasing activity [specific activity to Metastin (1-54)] (relative to Metastin (1-54)): 1.3
B7: des(1)-Ac-[D-Tyr2,Thr3,Thr5,AzaGly7,Arg(Me)9,Trp10]MS10 (peptide)
peptide: Ac-[dY]TNTF[azaGly]L[Arg(Me)]W-NH2
SMILES: CNC(=N)NCCC[C@H](NC(=O)[C@H](CC(C)C)NC(=O)NNC(=O)[C@H](Cc1ccccc1)NC(=O)[C@@H](NC(=O)[C@H](CC(N)=O)NC(=O)[C@@H](NC(=O)[C@@H](Cc1ccc(O)cc1)NC(C)=O)[C@@H](C)O)[C@@H](C)O)C(=O)N[C@@H](Cc1c[nH]c2ccccc12)C(N)=O

intracellular Ca ion level-increasing activity [specific activity to Metastin (1-54)] (relative to Metastin (1-54)): 0.2
B8: des(1)-Ac-[D-Tyr2,Trp3,Thr5,Phe(3F)6,AzaGly7,Arg(Me)9,Trp10]MS10 (peptide)
peptide: Ac-[dY]WNT[Phe(3-F)][azaGly]L[Arg(Me)]W-NH2
SMILES: CNC(=N)NCCC[C@H](NC(=O)[C@H](CC(C)C)NC(=O)NNC(=O)[C@H](Cc1cccc(F)c1)NC(=O)[C@@H](NC(=O)[C@H](CC(N)=O)NC(=O)[C@H](Cc1c[nH]c2ccccc12)NC(=O)[C@@H](Cc1ccc(O)cc1)NC(C)=O)[C@@H](C)O)C(=O)N[C@@H](Cc1c[nH]c2ccccc12)C(N)=O
